Laboratory results from patent US20030091564A1 (published 2003).

B1: trimeric human CD40-L (ligand)
chain: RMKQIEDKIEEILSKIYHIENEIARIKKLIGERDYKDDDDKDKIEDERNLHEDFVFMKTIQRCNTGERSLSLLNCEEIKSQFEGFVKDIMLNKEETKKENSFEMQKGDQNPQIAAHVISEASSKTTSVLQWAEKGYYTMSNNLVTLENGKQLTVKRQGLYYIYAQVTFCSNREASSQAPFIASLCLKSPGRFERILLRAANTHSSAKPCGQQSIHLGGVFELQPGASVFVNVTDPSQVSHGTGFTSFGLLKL
notes: Leader left out; also called Human Trimer; CD40-L trimer
B2: wild type CD40 ligand/zipper domain fusion protein expressed in yeast (ligand)
chain: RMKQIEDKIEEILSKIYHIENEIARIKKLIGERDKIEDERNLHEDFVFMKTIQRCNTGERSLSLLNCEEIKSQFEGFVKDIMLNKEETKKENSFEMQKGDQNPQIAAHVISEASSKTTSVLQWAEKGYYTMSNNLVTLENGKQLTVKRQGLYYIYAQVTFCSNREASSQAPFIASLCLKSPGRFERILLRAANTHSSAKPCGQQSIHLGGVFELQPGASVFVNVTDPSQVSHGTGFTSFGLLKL
notes: also called WT
B3: trimeric murine CD40-L (ligand)
chain: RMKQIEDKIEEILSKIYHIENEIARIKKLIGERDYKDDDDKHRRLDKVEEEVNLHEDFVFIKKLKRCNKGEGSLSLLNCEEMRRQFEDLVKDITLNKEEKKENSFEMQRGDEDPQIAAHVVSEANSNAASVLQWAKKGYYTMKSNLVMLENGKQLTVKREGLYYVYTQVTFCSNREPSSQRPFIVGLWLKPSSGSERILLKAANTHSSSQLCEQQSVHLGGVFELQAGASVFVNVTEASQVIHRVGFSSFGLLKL
notes: also called Murine Trimer; muCD40LT
B4: dimeric murine CD40-L (Fc fusion, not shown: a dimerising Fc or GST)
chain: HRRLDKVEEEVNLHEDFVFIKKLKRCNKGEGSLSLLNCEEMRRQFEDLVKDITLNKEEKKENSFEMQRGDEDPQIAAHVVSEANSNAASVLQWAKKGYYTMKSNLVMLENGKQLTVKREGLYYVYTQVTFCSNREPSSQRPFIVGLWLKPSSGSERILLKAANTHSSSQLCEQQSVHLGGVFELQAGASVFVNVTEASQVIHRVGFSSFGLLKL
notes: the whole entry is named; also called Murine Dimer
B5: CD40-L/FC2 soluble CD40-L/Fc fusion protein (Fc fusion)
chain: DYKDDDDKRSCDKTHTCPPCPAPELLGGPSVFLFPPKPKDTLMISRTPEVTCVVVDVSHEDPEVKFNWYVDGVEVHNAKTKPREEQYNSTYRVVSVLTVLHQDWLNGKEYKCKVSNKALPAPIEKTISKAKGQPREPQVYTLPPSRDELTKNQVSLTCLVKGFYPSDIAVEWESNGQPENNYKTTPPVLDSDGSFFLYSKLTVDKSRWQQGNVFSCSVMHGGGGSGGGGSGGGGSSSDKIEDERNLHEDFVFMKTIQRCNTGERSLSLLNCEEIKSQFEGFVKDIMLNKEETKKENSFEMQKGDQNPQIAAHVISEASSKTTSVLQWAEKGYYTMSNNLVTLENGKQLTVKRQGLYYIYAQVTFCSNREASSQAPFIASLCLKSPGRFERILLRAANTHSSAKPCGQQSIHLGGVFELQPGASVFVNVTDPSQVSHGTGFTSFGLLKL
notes: also called dimeric human CD40-L; Human Dimer

Tests used:
[1] = target: T1, CD40/Fc fusion protein (human, UniProt P25942 21-193); assay: BIAcore biosensor, CD40/Fc captured by goat anti-human IgG1 Fc; second experiment; K1 (site 1)
T1 construct: extracellular domain; also called C40/Fc; CD40Fc recombinant receptor
T1 sequence (P25942 other isoform, or with tags, fused parts or gaps limits assumed): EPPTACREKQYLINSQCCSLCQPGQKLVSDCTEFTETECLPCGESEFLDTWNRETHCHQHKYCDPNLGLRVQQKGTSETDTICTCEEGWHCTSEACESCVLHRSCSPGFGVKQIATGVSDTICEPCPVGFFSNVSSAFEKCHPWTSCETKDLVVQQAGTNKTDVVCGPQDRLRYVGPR
Description: (§1) This example illustrates the binding affinities of several different CD40-L constructs. Affinity experiments were conducted by biospecific interaction analysis (BIA) using a biosensor, an instrument that combines a biological recognition mechanism with a sensing device or transducer. An exemplary biosensor is BIAcore™, from Pharmacia Biosensor AB (Uppsala, Sweden; see Fägerstam L. G., Techniques in Protein Chemistry II, ed. J. J. Villafranca, Acad. Press, NY, 1991). BIAcore™ uses the optical phenomenon surface plasmon resonance (Kretschmann and Raether, Z. Naturforschung, Teil. A 23:2135, 1968) to monitor the interaction of two biological molecules.
(§2) The biosensor chips were coated with goat anti-human IgG₁ Fc, which was used to bind CD40/Fc (prepared as described in Example 1) to the chip. The different constructs of CD40-L were then added at increasing concentrations; the chip was regenerated between the different constructs by the addition of sodium hydroxide. Two separate experiments were performed. […] The resultant data were analyzed to determine the affinity and association rate constants of the different CD40-L constructs. […]

[2] = target: T1, CD40/Fc fusion protein; assay: BIAcore biosensor, CD40/Fc captured by goat anti-human IgG1 Fc; second experiment; K2 (site 2)
Description: as §1, §2

[3] = target: T1, CD40/Fc fusion protein; assay: BIAcore biosensor, CD40/Fc captured by goat anti-human IgG1 Fc; first experiment; K2 (site 2)
Description: as §1
(§3) The biosensor chips were coated with goat anti-human IgG₁ Fc, which was used to bind CD40/Fc (prepared as described in Example 1) to the chip. The different constructs of CD40-L were then added at increasing concentrations; the chip was regenerated between the different constructs by the addition of sodium hydroxide. Two separate experiments were performed. In the first, the binding of a dimeric human CD40-L (Example 14), trimeric human CD40-L (Example 15), dimeric murine CD40-L (prepared substantially as described in Example 14 for human CD40-L/FC) and trimeric murine CD40-L (prepared substantially as described for the human CD40-L in Example 15) were compared. In the second experiment, the binding of trimeric human CD40-L was compared to the binding of two different preparations of monomeric human CD40-L prepared as described in Example 18. The resultant data were analyzed to determine the affinity and association rate constants of the different CD40-L constructs. Results are shown in Table 12 below, and in FIGS. 18 and 19.

[4] = target: T1, CD40/Fc fusion protein; assay: BIAcore biosensor, CD40/Fc captured by goat anti-human IgG1 Fc; first experiment
Description: as §1, §3

[5] = target: T1, CD40/Fc fusion protein; assay: BIAcore biosensor, CD40/Fc captured by goat anti-human IgG1 Fc; first experiment; K1 (site 1)
Description: as §1, §3

[6] = target: T1, CD40/Fc fusion protein; assay: BIAcore biosensor, CD40/Fc captured by goat anti-human IgG1 Fc; second experiment
Description: as §1, §2

[7] = target: CD40 on cells (UniProt P25942 21-277, limits assumed); assay: cell-based or functional assay
Sequence of CD40 on cells (P25942 21-277 limits assumed): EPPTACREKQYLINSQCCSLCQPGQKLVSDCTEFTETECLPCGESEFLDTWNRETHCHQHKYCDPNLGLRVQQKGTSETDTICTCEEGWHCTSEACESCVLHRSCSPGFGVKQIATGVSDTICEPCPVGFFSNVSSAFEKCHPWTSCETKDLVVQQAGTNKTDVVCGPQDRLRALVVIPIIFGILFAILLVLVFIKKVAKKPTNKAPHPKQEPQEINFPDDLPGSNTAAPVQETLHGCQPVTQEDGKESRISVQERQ

[8] = target: T1, CD40/Fc fusion protein; assay: biosensor assay substantially as in Example 22; yeast-expressed protein
Description: as §3
Mutant 18PP had only a single mutation in the molecule, which was sufficient to affect secretion in yeast. Mutant 41 had two mutations, both of which were in the isoleucine residues of the zipper domain. The mutations in the zipper improve secretion from yeast without apparent effect on activity.

Binder	Ka [1]	Ka [2]	Ka [3]	Site 1 (mol/mol CD40/Fc) [4]	Site 2 (mol/mol CD40/Fc) [4]	Ka [5]	Site 2 (mol/mol CD40/Fc) [6]	B-cell proliferation (U/µg), Experiment 2 [7]	Ka [8]
B1	6.6e+08 M⁻¹	2.6e+07 M⁻¹	7.5e+07 M⁻¹	0.04 mol/mol CD40/Fc	0.68 mol/mol CD40/Fc	5e+09 M⁻¹	0.41 mol/mol CD40/Fc	–	–
B2	–	–	–	–	–	–	–	15 U/µg	7.7e+07 M⁻¹
B3	–	–	1.6e+08 M⁻¹	0.02 mol/mol CD40/Fc	0.44 mol/mol CD40/Fc	6e+10 M⁻¹	–	–	–
B4	–	–	–	0.05 mol/mol CD40/Fc	0.14 mol/mol CD40/Fc	–	–	–	–
B5	–	–	7e+08 M⁻¹	0.013 mol/mol CD40/Fc	0.049 mol/mol CD40/Fc	1.6e+11 M⁻¹	–	–	–
